Test results published in US20110086770A1 (ANAPHORE, published 2011).
Where a chain is given by its changes, count along the chain named.

Target: T1, recombinant human IL-23R/Fc chimera (R&D Systems) (human, UniProt Q5VWK5 24-353)
T1 construct: bought; also called human IL-23R/Fc fusion protein; rhIL23RFc
T1 sequence (looked up): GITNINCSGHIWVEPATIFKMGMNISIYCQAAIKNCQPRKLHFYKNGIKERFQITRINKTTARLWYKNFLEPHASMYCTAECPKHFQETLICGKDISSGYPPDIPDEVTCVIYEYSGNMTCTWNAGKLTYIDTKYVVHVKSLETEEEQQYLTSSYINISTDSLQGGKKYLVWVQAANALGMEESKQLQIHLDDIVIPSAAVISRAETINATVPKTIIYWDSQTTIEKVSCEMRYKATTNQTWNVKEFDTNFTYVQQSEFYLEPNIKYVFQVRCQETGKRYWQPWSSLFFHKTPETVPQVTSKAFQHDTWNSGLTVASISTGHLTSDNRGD
Assay: competition ELISA against IL-23
Procedure: Assays were performed generally as follows. Individual wells in Immulon HB2 plates were incubated overnight at 4° C. with 100 μL PBS containing 100 ng of an anti-human IgG Fc (R&D MAB 110 clone 97924). Plates were washed five times with PBS/0.05% Tween 20, and wells were incubated for 1.5 h at RT with 100 μL each of PBS containing 50 ng of recombinant human IL-23R/Fc. […] Competitor was included at a final concentration of 1 μg/mL. After incubation, plates were washed as described and wells were incubated for 40 min at RT with 100 μL each of PBS containing a 1:5000 dilution of streptavidin-HRP conjugate (Pierce catalog no. 21130). After washing, wells were incubated with 100 μL each of TMB (BioFX Lab catalog no. TMBH-1000-0) for up to 30 min at RT. Reactions were stopped with an equal volume of 0.2 M sulfuric acid.

B1: 105-08-1D1 ATRIMER (designed binder)
chain: EPPTQKPKKIVNAKKDVVNTKMFEELKSRLDTLAQEVALLKEQQALQTVCLKGTKVHMKCFLAFTQTKTFHEASEDCISRGGTLSTPQTGSENDALYEYLRQSVGNEAEIWLGLNGSALTDTWVDMTGARIAYKNWETEITAQPDGGWGYFGENCAVLSGAANGKWFDKRCRDQLPYICQFGIV
  Ratio IC50 to 056-53.H4E IC50: 3.6 ratio

B2: 105-20-2C4a ATRIMER (designed binder)
chain: B1 chain with L119K
notes: not shown: C-terminal tag: His/Myc (pANA4) or HA-StrepII (pANA10)
  Ratio IC50 to 056-53.H4E IC50: 2.9 ratio

B3: 105-08-2H4 ATRIMER (designed binder)
chain: B1 chain with A118V, L119R, W148F
  Ratio IC50 to 056-53.H4E IC50: 5 ratio

B4: 105-08-2H11 ATRIMER (designed binder)
chain: B1 chain with A118P, L119R
  Ratio IC50 to 056-53.H4E IC50: 4.3 ratio

B5: 105-08-2D2 ATRIMER (designed binder)
chain: B1 chain with L119R, D121G, W148F
modifications: Forms a homotrimer (ATRIMER) through the tetranectin coiled coil; one protomer is given.
notes: not shown: C-terminal tag
  Ratio IC50 to 056-53.H4E IC50: 4.1 ratio

B6: 105-08-1D10 ATRIMER (designed binder)
chain: B1 chain with L119R, D121G
notes: as for B2
  Ratio IC50 to 056-53.H4E IC50: 5.5 ratio

B7: 105-20-1H7 ATRIMER (designed binder)
chain: B1 chain with L119G, D121N, W148F
  Ratio IC50 to 056-53.H4E IC50: 2.1 ratio

B8: 105-08-2C12 ATRIMER (designed binder)
chain: B1 chain with A118Q, L119R, W148F
modifications: Homotrimer of the given chain (ATRIMER complex).
  Ratio IC50 to 056-53.H4E IC50: 3.3 ratio

B9: 105-08-2G6 ATRIMER (designed binder)
chain: B1 chain with A118L
notes: as for B2
  Ratio IC50 to 056-53.H4E IC50: 5.2 ratio

B10: 105-08-1G12 ATRIMER (designed binder)
chain: B1 chain with A118L, L119R, D121G
  Ratio IC50 to 056-53.H4E IC50: 13.2 ratio

B11: 105-20-2C11 ATRIMER (designed binder)
chain: B1 chain with A118V, L119R
  Ratio IC50 to 056-53.H4E IC50: 4.8 ratio

B12: 105-08-2G1 ATRIMER (designed binder)
chain: B1 chain with A118P, L119K, D121H, W148F
  Ratio IC50 to 056-53.H4E IC50: 2.2 ratio

B13: 105-08-2F6 ATRIMER (designed binder)
chain: B1 chain with L119Y, D121N, W148F
notes: as for B2
  Ratio IC50 to 056-53.H4E IC50: 2.4 ratio

B14: 105-08-2G2 ATRIMER (designed binder)
chain: B1 chain with L119I
  Ratio IC50 to 056-53.H4E IC50: 3.8 ratio

B15: 105-08-1G2 ATRIMER (designed binder)
chain: B1 chain with A118S, L119K, D121N
notes: as for B2
  Ratio IC50 to 056-53.H4E IC50: 5.5 ratio

B16: 105-08-1G9 ATRIMER (designed binder)
chain: B1 chain with A118P, L119K, W148F
notes: as for B2
  Ratio IC50 to 056-53.H4E IC50: 2.4 ratio

B17: 105-20-1A6 ATRIMER (designed binder)
chain: B1 chain with L119K, D121G
notes: as for B2
  Ratio IC50 to 056-53.H4E IC50: 6.6 ratio

B18: 105-08-2C6 ATRIMER (designed binder)
chain: B1 chain with A118Q, L119R
  Ratio IC50 to 056-53.H4E IC50: 3.6 ratio

B19: 105-08-2E12 ATRIMER (designed binder)
chain: B1 chain with A118G
  Ratio IC50 to 056-53.H4E IC50: 9.1 ratio

B20: 105-20-1H1 ATRIMER (designed binder)
chain: B1 chain with A118P, D121N
  Ratio IC50 to 056-53.H4E IC50: 1.8 ratio

B21: 105-08-2C11 ATRIMER (designed binder)
chain: B1 chain with A118L, L119K, D121Q
  Ratio IC50 to 056-53.H4E IC50: 9.1 ratio

B22: 105-08-2C9 ATRIMER (designed binder)
chain: B1 chain with A118T, D121N
notes: as for B2
  Ratio IC50 to 056-53.H4E IC50: 5.3 ratio

B23: 105-08-2A1 ATRIMER (designed binder)
chain: B1 chain with A118M, L119R
  Ratio IC50 to 056-53.H4E IC50: 5 ratio

B24: 105-08-2C4 ATRIMER (designed binder)
chain: B1 chain with A118L, D121N, W148F
modifications: Homotrimer of the given chain (ATRIMER complex).
  Ratio IC50 to 056-53.H4E IC50: 2.9 ratio

B25: 105-08-1D12 ATRIMER (designed binder)
chain: B1 chain with A118V, W148F
  Ratio IC50 to 056-53.H4E IC50: 4.6 ratio

B26: 105-08-2G4 ATRIMER (designed binder)
chain: B1 chain with A118P, L119R, D121G, W148F
notes: as for B2
  Ratio IC50 to 056-53.H4E IC50: 2.5 ratio

B27: 105-08-2C10 ATRIMER (designed binder)
chain: B1 chain with A118L, W148F, Y150V
notes: not shown: C-terminal purification tag: Myc/His6 (pANA4) or HA-StrepII (pANA10)
  Ratio IC50 to 056-53.H4E IC50: 0.9 ratio

B28: 105-08-2H6 ATRIMER (designed binder)
chain: B1 chain with A118P, L119V, D121G, W148F
  Ratio IC50 to 056-53.H4E IC50: 2 ratio

B29: 105-20-2C7 ATRIMER (designed binder)
chain: B1 chain with A118V, L119T, W148F
  Ratio IC50 to 056-53.H4E IC50: 3.5 ratio

B30: 105-08-2B3 ATRIMER (designed binder)
chain: B1 chain with L119I, D121N
  Ratio IC50 to 056-53.H4E IC50: 3.4 ratio

B31: 105-08-2C8 ATRIMER (designed binder)
chain: B1 chain with A118W
  Ratio IC50 to 056-53.H4E IC50: 8.4 ratio

B32: 105-08-2G7 ATRIMER (designed binder)
chain: B1 chain with A118P, L119K, D121G, W148F
notes: as for B2
  Ratio IC50 to 056-53.H4E IC50: 2.5 ratio

B33: 105-20-1B4 ATRIMER (designed binder)
chain: B1 chain with A118S, L119R, D121N
modifications: Homotrimer of the given chain (ATRIMER complex).
  Ratio IC50 to 056-53.H4E IC50: 3 ratio

B34: 105-08-2C1 ATRIMER (designed binder)
chain: B1 chain with A118S
  Ratio IC50 to 056-53.H4E IC50: 3.6 ratio

B35: 105-20-2C4b ATRIMER (designed binder)
chain: B1 chain with A118V, L119K
modifications: Forms a homotrimer (ATRIMER) through the tetranectin coiled coil; one protomer is given.
notes: not shown: C-terminal tag
  Ratio IC50 to 056-53.H4E IC50: 4.2 ratio

B36: 105-08-2H10 ATRIMER (designed binder)
chain: B1 chain with A118N, L119H, W148F
notes: as for B2
  Ratio IC50 to 056-53.H4E IC50: 6.5 ratio

B37: 105-08-2H3 ATRIMER (designed binder)
chain: B1 chain with A118S, D121N
modifications: Homotrimer of the given chain (ATRIMER complex).
  Ratio IC50 to 056-53.H4E IC50: 2.9 ratio

B38: 105-08-2G10 ATRIMER (designed binder)
chain: B1 chain with A118P, W148F
  Ratio IC50 to 056-53.H4E IC50: 1.8 ratio

B39: 105-08-1D3 ATRIMER (designed binder)
chain: B1 chain with A118K, L119V, D121E, W148F
notes: as for B27
  Ratio IC50 to 056-53.H4E IC50: 0.4 ratio

B40: 105-08-1D2 ATRIMER (designed binder)
chain: B1 chain with A118P, L119V, W148F
modifications: Forms a homotrimer (ATRIMER) through the tetranectin coiled coil; one protomer is given.
notes: not shown: C-terminal tag
  Ratio IC50 to 056-53.H4E IC50: 4.3 ratio

B41: 105-08-2H2 ATRIMER (designed binder)
chain: B1 chain with A118P, L119T
  Ratio IC50 to 056-53.H4E IC50: 4 ratio

B42: 105-08-2H12 ATRIMER (designed binder)
chain: B1 chain with A118P, L119R, D121E, W148F
modifications: Homotrimer of the given chain (ATRIMER complex).
  Ratio IC50 to 056-53.H4E IC50: 3.3 ratio
